This note sets out measurements from patent publication US20100062011A1.

Assay [1] concerns the target Peptide having the amino acid sequence of the 298th to 312th of Gag protein derived from HIV-1 (HIV-1). The assay is described as follows: ELISA, serial 2-fold serum dilutions on coated Gag peptide; negative control serum. On the technique in general: In an ELISA, binding on a coated surface is turned into a signal by an enzyme label.
For assay [2], the target named is Amyloid β-peptide consisting of 42 amino acid residues (human). The assay is described as follows: ELISA, serial 2-fold serum dilutions on coated Aβ (SEQ ID NO:2); negative control serum.
The target in assay [3] is DTL, T-cell epitope peptide derived from diphtheria toxoid. Description: ELISA, serum dilutions on coated DTL peptide; control serum.
Assay [4] concerns the target TetT3L, T-cell epitope peptide derived from tetanus toxoid.

Consider “Antiserum from BALB/c mice not vaccinated (negative control, Experiment 1) (antibody)”, for which the antibody titer in assay [1] was found to be 5.7; in assay [2], 9.2.
In the case of “Serum of BALB/c mice given neither peptide nor binary mixed vaccine (Experiment 2) (antibody)”, the antibody titer in assay [3] and in assay [4] was 3 each time.
